For 1 substance, FcRNn Binding (%) (specific binding activity), Antigen Binding (%) (specific binding activity) and FcyRIIIa Binding (%) (specific binding activity) results are on record in patent US20240369568A1.

What all share (test): SPR, release and stability method, specific binding activity
In general terms: Surface plasmon resonance follows binding to a sensor surface in real time, without labels.

One assay deals with FcRn (UniProt P55899).
The target in assay [1] is BCMA (the 'Antigen' of the SPR antigen binding assay) (human) (UniProt Q02223).
The target in a further assay is FcγRIIIa (UniProt P08637).
Sequence of FcγRIIIa (P08637 17-208 limits assumed): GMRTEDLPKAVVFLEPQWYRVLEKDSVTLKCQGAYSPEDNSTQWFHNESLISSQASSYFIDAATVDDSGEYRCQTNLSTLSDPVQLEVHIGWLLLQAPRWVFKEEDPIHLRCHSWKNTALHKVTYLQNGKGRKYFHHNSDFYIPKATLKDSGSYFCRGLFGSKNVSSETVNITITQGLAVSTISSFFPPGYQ

Sequence of BCMA (the 'Antigen' of the SPR antigen binding assay) (human) (Q02223 1-54 limits assumed): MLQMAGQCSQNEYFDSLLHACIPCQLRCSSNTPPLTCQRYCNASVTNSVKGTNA
Sequence of FcRn (P55899 24-297 limits assumed, chain 1 of 2): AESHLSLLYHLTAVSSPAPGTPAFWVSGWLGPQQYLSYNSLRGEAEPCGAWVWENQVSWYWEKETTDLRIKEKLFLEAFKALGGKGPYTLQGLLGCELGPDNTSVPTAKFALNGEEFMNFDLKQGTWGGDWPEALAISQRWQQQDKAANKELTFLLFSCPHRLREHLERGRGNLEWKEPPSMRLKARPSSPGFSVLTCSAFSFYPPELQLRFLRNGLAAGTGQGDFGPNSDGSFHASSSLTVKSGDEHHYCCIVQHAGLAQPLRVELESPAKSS
Sequence of FcRn (P61769 21-119 limits assumed, chain 2 of 2, further chain): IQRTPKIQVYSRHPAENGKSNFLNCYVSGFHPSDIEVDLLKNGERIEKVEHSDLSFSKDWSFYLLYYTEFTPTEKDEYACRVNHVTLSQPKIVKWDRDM

For the substance Control (sample of Table 11), the FcRNn Binding (%) (specific binding activity) with FcRn is 101%. Further, the Antigen Binding (%) (specific binding activity) in assay [1] amounted to 96%. This substance also had a FcyRIIIa Binding (%) (specific binding activity) in the assay with FcγRIIIa of 97%.
